Consider 15 molecules from patent publication US20240254222A1 (Bayer, published 2024).

Numbering of substitutions follows the chain as printed.

T1: Pig Semaphorin3A-Sema Domain, TPP-20176 (pig, UniProt Q63548 21-569 (rat entry))
T1 construct: produced inhouse
T1 chain: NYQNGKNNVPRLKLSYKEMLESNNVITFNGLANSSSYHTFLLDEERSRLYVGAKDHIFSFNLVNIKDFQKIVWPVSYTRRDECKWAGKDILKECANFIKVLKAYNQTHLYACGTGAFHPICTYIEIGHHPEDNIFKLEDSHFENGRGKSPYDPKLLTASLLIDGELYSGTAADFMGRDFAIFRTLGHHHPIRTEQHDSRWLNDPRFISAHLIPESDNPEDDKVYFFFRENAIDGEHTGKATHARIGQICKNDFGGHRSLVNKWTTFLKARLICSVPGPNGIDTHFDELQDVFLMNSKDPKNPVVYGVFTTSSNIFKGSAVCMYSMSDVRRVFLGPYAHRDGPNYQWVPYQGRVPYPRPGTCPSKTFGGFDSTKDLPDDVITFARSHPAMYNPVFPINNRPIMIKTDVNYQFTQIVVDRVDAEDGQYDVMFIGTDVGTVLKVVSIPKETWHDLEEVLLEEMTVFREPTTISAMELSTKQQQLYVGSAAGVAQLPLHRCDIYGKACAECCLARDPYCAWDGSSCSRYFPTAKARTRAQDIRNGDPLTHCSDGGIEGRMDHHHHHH

T2: Dog Semaphorin3A-Sema Domain, TPP-19121 (dog, UniProt Q63548 21-569 (rat entry), limits assumed)
T2 construct: produced inhouse
T2 chain: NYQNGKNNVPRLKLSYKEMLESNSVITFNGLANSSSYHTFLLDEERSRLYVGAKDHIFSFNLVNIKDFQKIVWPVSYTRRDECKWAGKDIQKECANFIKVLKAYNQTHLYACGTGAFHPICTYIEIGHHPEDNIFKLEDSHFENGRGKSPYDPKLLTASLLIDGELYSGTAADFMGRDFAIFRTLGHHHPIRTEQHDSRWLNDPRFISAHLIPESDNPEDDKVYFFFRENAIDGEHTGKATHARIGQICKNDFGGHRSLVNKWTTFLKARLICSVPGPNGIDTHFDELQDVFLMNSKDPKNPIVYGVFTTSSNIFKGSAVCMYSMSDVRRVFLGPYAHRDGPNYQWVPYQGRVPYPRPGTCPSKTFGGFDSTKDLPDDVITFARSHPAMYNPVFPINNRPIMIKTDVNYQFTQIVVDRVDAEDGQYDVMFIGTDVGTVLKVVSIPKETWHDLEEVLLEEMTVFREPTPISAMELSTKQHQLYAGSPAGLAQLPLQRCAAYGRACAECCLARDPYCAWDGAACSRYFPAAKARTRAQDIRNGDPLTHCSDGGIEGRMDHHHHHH

T3: Human Semaphorin3A-Sema Domain, TPP-19068 (human, UniProt Q14563 21-569)
T3 construct: produced inhouse in HEK293-6E; also called human monovalent Sema3A domain
T3 sequence: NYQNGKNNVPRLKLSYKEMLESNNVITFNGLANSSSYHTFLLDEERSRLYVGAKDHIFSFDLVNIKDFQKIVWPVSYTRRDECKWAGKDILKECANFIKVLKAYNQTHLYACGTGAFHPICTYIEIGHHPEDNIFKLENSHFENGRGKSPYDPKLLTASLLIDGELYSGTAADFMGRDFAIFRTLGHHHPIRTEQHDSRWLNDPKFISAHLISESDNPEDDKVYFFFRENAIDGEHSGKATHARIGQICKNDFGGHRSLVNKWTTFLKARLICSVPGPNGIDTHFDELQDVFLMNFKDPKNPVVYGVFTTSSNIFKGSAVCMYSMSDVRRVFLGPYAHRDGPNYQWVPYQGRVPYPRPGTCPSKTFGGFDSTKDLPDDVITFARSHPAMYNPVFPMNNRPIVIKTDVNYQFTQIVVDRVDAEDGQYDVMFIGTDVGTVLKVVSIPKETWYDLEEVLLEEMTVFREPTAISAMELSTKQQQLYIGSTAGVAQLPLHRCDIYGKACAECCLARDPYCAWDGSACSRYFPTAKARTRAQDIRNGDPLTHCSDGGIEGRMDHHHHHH

B1: TPP-23337 (antibody, human IgG4 S228P, lambda, V domains shown)
VH: EVQLLESGGGLVQPGGSLRLSCAASGFTFSSYAMSWVRQAPGKGLEWVSAIGYGGDTYYADSVKGRFTISRDNSKNTLYLQMNSLRAEDTAVYYCARRDDYTSRDAFDYWGQGTLVTVSS
VL: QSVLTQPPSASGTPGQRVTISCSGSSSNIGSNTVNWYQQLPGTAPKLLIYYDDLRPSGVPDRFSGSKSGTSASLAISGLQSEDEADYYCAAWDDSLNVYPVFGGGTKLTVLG
B2: TPP-15370 (antibody, human IgG1, lambda, V domains shown)
VH: B1 VH with A33G, S35H, Y53T, K64M, Y109V
VL: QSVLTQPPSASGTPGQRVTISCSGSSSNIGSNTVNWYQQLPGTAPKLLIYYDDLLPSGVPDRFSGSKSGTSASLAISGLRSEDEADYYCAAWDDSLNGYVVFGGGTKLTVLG
notes: human IgG1; also called IgG1, hit from panning; parental mAb
B3: TPP-23334 (antibody, human IgG4 S228P, lambda, V domains shown)
VH: B1 VH
VL: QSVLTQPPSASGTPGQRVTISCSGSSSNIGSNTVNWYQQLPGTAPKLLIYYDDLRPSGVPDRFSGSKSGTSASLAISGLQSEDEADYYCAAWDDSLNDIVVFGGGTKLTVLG
B4: TPP-23345 (antibody, human IgG4 S228P, lambda, V domains shown)
VH: B1 VH
VL: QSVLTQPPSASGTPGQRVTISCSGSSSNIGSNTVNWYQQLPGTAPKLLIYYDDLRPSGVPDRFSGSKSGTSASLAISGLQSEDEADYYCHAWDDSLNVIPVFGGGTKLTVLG
B5: TPP-23346 (antibody, human IgG4 S228P, lambda, V domains shown)
VH: B1 VH with S30Y, S35L, Y53T
VL: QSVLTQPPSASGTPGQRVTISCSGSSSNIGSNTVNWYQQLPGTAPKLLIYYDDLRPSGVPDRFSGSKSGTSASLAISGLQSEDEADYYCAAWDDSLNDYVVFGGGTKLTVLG
B6: TPP-23338 (antibody, human IgG4 S228P, lambda, V domains shown)
VH: B1 VH
VL: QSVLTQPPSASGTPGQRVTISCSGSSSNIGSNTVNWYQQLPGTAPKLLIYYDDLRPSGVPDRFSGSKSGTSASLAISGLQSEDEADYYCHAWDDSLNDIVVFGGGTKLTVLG
B7: TPP-23340 (antibody, human IgG4 S228P, lambda, V domains shown)
VH: B1 VH
VL: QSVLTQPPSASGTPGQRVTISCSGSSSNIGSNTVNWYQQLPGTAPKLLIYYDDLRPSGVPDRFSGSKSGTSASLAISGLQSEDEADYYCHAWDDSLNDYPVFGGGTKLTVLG
B8: TPP-23298 (antibody, human IgG4 S228P, lambda, V domains shown)
VH: B1 VH with S30Y, Y53T
VL: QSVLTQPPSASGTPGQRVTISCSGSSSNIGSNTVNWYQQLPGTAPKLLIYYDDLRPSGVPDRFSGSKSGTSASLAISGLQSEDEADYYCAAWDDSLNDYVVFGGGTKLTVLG
B9: TPP-11489 (antibody, human IgG1, lambda)
heavy: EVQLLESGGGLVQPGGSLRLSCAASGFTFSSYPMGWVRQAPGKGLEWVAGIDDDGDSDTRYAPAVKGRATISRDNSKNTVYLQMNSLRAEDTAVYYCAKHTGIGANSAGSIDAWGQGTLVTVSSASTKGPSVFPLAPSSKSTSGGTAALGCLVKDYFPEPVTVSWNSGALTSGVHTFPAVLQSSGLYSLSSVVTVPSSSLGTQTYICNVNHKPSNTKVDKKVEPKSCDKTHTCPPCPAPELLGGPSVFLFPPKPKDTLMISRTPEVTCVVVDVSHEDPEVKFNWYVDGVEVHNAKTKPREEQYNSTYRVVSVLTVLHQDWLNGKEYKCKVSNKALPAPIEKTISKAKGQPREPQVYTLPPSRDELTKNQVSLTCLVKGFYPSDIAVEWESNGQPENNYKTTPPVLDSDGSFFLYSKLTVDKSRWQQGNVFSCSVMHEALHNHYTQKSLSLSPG
light: SYELTQPPSVSVSPGQTARITCSGGGSYTGSYYYGWYQQKPGQAPVTVIYYNNKRPSDIPERFSGSLSGTTNTLTISGVQAEDEADYYCGSADNSGDAFGTGTKVTVLGQPKAAPSVTLFPPSSEELQANKATLVCLISDFYPGAVTVAWKADSSPVKAGVETTTPSKQSNNKYAASSYLSLTPEQWKSHRSYSCQVTHEGSTVEKTVAPTECS
notes: human IgG1; also called Chiome; Chiome Prior Art (hIgG1)
B10: TPP-17755 (antibody, human IgG1, lambda, V domains shown)
VH: EVQLLESGGGLVQTGGSLRLSCAASGFTFSDYAMSWVRQAPGKGLEWVSWIYYDSGSKYYADSVKGRFTISRDNSKNTLYLQMNSLRAEDTAVYYCAKLNGDFDYWGQGTLVTVSS
VL: QSVLTQPPSASGTPGQRVTISCSGSSSNIGNNDVSWYQQLPGTAPKLLIYADSHRPSGVPDRFSGSKSGTSASLAISGLRSEDEADYYCGAWDSSLSGYVFGGGTKLTVLG
notes: also called Samsung; Samsung Prior Art F11
B11: TPP-30792 (antibody, human IgG1, lambda, V domains shown)
V domain 1: EVQLLESGGGLVQPGGSLRLSCAASGFTFRSYAVHWVRQAPGKGLEWVSSTEGSGVGTSYTDSVKGRFTISRDNSKNTLYLQMNSLRAEDTAVYYCARMLGGGNPLDYLDYWGQGTLVTVSS
V domain 2: QSVLTQPPSASGTPGQRVTISCSGSSSNLGEGYDVHWYQQLPGKAPKLLIYYSDFRPSGVSDRFSGSKSGTSASLAISGLQSEDEADYYCAAWDDSLSSQVFGGGTQVTVLG
notes: IgG1; prior art, WO 2020/261281; also called 3H4 Univ Ramot; 3H4 (Ramot) Clon I
B12: TPP-15374 (antibody, human IgG1, lambda, V domains shown)
VH: EVQLLESGGGLVQPGGSLRLSCAASGFTFSSYEMNWVRQAPGKGLEWVSGISWNSGSIGYADSVKGRFTISRDNSKNTLYLQMNSLRAEDTAVYYCARSGYSSSWFDPDFDYWGQGTLVTVSS
VL: QSVLTQPPSASGTPGQRVTISCTGSSSNIGAGYDVHWYQQLPGTAPKLLIYGNSNRPSGVPDRFSGSKSGTSASLAISGLRSEDEADYYCSSYAGSNPYVVFGGGTKLTVLG
notes: as for B2
B13: TPP-30789 (antibody, human IgG1, kappa, V domains shown)
VH: EVQLVESGGGLVQPGGSLRLSCAASGFPFSSYYMSWVRQAPGKGLEWVSTIIKSGGYAYYPDSVKDRFTISRDNSKNTLYLQMSSLRAEDTAVYYCVRGGQGAMDYWGQGTTVTVSS
VL: EIVLTQSPATLSLSPGERATLSCRASQSIGDYLHWYQQKPGQAPRLLIKYASQSISGIPARFSGSGSGTDFTLTITSLEPEDFAVYYCQQGYSFPYTFGGGTKLEIKR
notes: prior art, WO 2020/225400; also called BI clone II; Böhringer (BI) Clone II
B14: TPP-30791 (antibody, human IgG1, kappa, V domains shown)
VH: B13 VH with V12L, P14L, P28T, Y80N, S84N, R98K
VL: B13 VL with T76S
notes: prior art, WO 2020/225400; also called BI clone IV; Böhringer (BI) Clone IV
B15: TPP-30790 (antibody, human IgG1, kappa, V domains shown)
VH: B13 VH with P14L, P28T, S84N, R98K
VL: B13 VL with K49Y, T76S
notes: prior art, WO 2020/225400; also called BI clone III; Böhringer (BI) Clone III

T4 sequence (chain, as listed by the source limits assumed): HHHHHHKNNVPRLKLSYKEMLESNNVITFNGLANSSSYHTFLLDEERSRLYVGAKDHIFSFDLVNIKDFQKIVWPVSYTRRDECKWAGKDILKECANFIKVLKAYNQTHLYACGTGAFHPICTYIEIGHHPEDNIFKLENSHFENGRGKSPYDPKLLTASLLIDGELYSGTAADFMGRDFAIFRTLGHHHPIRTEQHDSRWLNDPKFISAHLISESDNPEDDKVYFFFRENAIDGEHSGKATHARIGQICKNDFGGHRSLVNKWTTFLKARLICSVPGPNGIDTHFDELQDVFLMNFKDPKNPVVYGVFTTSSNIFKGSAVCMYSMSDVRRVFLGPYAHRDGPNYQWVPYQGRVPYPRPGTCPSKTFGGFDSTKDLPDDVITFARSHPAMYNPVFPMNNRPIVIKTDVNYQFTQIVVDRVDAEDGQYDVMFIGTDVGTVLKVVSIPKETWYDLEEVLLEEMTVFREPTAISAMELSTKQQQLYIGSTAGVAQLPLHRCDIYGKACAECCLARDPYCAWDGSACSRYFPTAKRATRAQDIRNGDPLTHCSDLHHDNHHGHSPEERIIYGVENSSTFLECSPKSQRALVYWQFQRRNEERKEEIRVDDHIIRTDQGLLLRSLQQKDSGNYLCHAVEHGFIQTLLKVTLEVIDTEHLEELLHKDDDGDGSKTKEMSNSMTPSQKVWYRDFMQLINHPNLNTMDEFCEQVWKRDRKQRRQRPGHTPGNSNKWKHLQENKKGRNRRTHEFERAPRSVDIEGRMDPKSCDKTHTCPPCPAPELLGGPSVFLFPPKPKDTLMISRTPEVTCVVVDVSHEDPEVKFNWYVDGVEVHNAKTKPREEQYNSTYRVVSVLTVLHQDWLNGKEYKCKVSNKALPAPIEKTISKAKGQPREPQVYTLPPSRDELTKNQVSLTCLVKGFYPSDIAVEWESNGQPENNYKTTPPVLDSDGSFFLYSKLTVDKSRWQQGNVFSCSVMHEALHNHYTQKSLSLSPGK

The target of one assay is T1, Pig Semaphorin3A-Sema Domain, TPP-20176. Briefly: SPR, captured antibody, Sema3A domain analyte. In outline: (§1)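 SPR on Biacore T200/8K+ at 25° C in HBS P+ with 300 mM NaCl, 0.75 mM CaCl₂, 2.5 mM MgCl₂, 1 mg/ml BSA; antibodies captured by anti-human Fc, or anti-human Fab for Fc-tagged analytes. Fc-Sema3A at 1.56-200 nM; monovalent Sema domains at […]-3.125 nM multi-cycle or 100 nM binding only. Double-referenced 1:1 Langmuir fit.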
On the technique in general: Surface plasmon resonance follows binding to a sensor surface in real time, without labels.
Take B1: the affinity, expressed as Kd, was 0.011 nM.
On to B2, for which binding was characterised by a dissociation constant (Kd) of 9 nM.
On the same count and under the same terms, to B3 belongs 0.014 nM; to B4, 0.055 nM.
Same read-out and setting: to B5 belongs 0.058 nM.
On to B6, for which the dissociation constant Kd (commonly a measure of binding affinity in units of concentration) worked out at 0.046 nM.
Consider B7, for which the Kd worked out at 0.062 nM.
Regarding B8, the Kd stood at 0.067 nM.
On the same count and under the same terms, to B9 belongs 100 nM; to B10, 4 nM.
In the case of B11, the binding result is given as “no binding”.
Regarding B12, the Kd was 7.2 nM.
As for B13, binding was characterised by a dissociation constant (Kd) of 0.039 nM.
The same measure, in the same setting: under B14 stands 0.029 nM; under B15, 0.036 nM.

The target of a further assay is T2, Dog Semaphorin3A-Sema Domain, TPP-19121. Kind of assay: SPR, captured antibody, Sema3A domain analyte. In outline:
as §1
As for B1, the Kd was 0.0045 nM.
Take B2: the equilibrium dissociation constant (Kd) was found to be 22 nM.
Same read-out and setting: to B3 belongs 0.0084 nM.
On the same count and under the same terms, under B4 stands 0.046 nM.
With B5, the affinity, expressed as Kd, was 0.061 nM.
As for B6, binding was put at a Kd of 0.053 nM.
The same measure, in the same setting: to B7 belongs 0.058 nM; to B8, 0.07 nM.
B9 yielded a Kd of 50 nM.
The molecule B10 had a dissociation constant Kd of 7.5 nM.
For the molecule B11, the binding result is “no binding”.
B12: the Kd worked out at 19 nM.
Still for that read-out and setting: under B13 stands 0.11 nM; under B14, 0.078 nM.
The same measure, in the same setting: under B15 stands 0.1 nM.

In the next assay the target is T3, Human Semaphorin3A-Sema Domain, …. Kind of assay: SPR, captured antibody, Sema3A domain analyte. An outline of the steps: as §1
As for B1, the dissociation constant Kd worked out at 0.05 nM.
B2: the dissociation constant Kd came to 10 nM.
With B3, the Kd is 0.021 nM.
On the same count and under the same terms, under B4 stands 0.065 nM; under B5, 0.072 nM; under B6, 0.054 nM.
On the same count and under the same terms, to B7 belongs 0.022 nM.
Still for that read-out and setting: under B8 stands 0.087 nM; under B9, 73 nM; under B10, 6.9 nM.
B11: the binding result is “no binding”.
In turn, B12 returned a Kd of 15 nM.
Molecule B13 came in with a Kd of 0.022 nM.
In the case of B14, the dissociation constant (Kd) stood at 0.012 nM.
Still for that read-out and setting: under B15 stands 0.015 nM.

A further assay addresses T4, Human Semaphorin3A-Fc (R&D Systems), TPP-13211 (human).
T4 construct: R&D Systems 1250-S3; also called recombinant human Sema3A-Fc chimera
Kind of assay: ELISA, coated Sema3A-Fc, antibody 0.00015-10 ug/ml. As for the experimental part: For the assessment of binding selectivity to Sema3A vs Sema3G, 1 nM recombinant human Sema3A-Fc chimera (R&D Systems) or recombinant human GST—Sema3G (Abnova) were coated on Maxisorb plates, incubated with antibodies in a dose-response curve from 0.00015-10 μg/ml, and the binding of antibodies quantified using HRP coupled anti-human antiserum and chemiluminescent substrate.
In general terms: ELISA stands for enzyme-linked immunosorbent assay.
Turning to B1, the concentration for a half-maximal effect (EC50) (in general, the midpoint of the concentration-response curve) came out at 15.5 nM.
Same read-out and setting: to B3 belongs 9.2 nM.
In the case of B6, the 50% effective concentration (EC50) turned out to be 9.6 nM.
The same measure, in the same setting: to B7 belongs 12.3 nM; to B8, 1.6 nM.
With B13, the concentration giving a half-maximal response (EC50) turned out to be 0.1 nM.
The molecule B14 gave an EC50 of 0.08 nM.
The same measure, in the same setting: to B15 belongs 0.08 nM.

The target in the next assay is T4, Human Semaphorin3A-Fc (R&D Systems), …. Kind of assay: cell-based or functional assay.
Regarding B1, the “EC50 [nM], MCM assay” value was found to be 0.33 nM.
Turning to B2, the “EC50 [nM], MCM assay” value came out at 4.13 nM.
For B3, the “EC50 [nM], MCM assay” value was 0.67 nM.
The same measure, in the same setting: under B4 stands 0.93 nM.
Still for that read-out and setting: under B5 stands 1.27 nM; under B6, 0.6 nM; under B7, 0.87 nM.
Still for that read-out and setting: to B8 belongs 0.4 nM; to B10, 11.3 nM; to B12, 5.07 nM.
